According to the nanobody polyreactivity screen of Harvey et al. (2022):

Assay: yeast display, Sf9 membrane polyspecificity reagent, FACS + sequencing; frameworks hold sequencing errors
Summary of the method: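 Galactose induction of a Saccharomyces cerevisiae BJ5465 synthetic nanobody display library ran 36–48 hours. The cells were then stained for 1 hour at 4 °C with 10% biotinylated, detergent-solubilized Sf9 membrane reagent, pulled down on streptavidin microbeads and FACS-sorted into low and high (top ~1%) gates on expression and reagent-binding fluorescence. Labels for polyreactivity follow the gate of origin.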

Row | Sequence | polyreactivity (PSR sort gate)
1 | QVLRVDSGGGLVQAGGSLRLSCAASGSIFGFYARGWDRQAPGTERELVAAITFSGGSTDYTDSVKGRFTISSDNAKNTVYLQMNSLKTEDTSVYYCADRGYAIYSYWYYEPYDYWGQGTQVTVSS | high polyreactivity
2 | QVNLVESGGGLVQAGGSLRLSCAASGLTFARNAMGWYSQAPGKERELVASITSVGRTNYADSVKGRFTISRDNAKNTVYLEMNSLKPEDTAVYFCGAKPSWHGVYYWGQGTQVTVSS | low polyreactivity
3 | QVNLVESGGVSVQAGGSLRLSCAASGLIFDKYAMGWYRQAPGKERELVAAITRSSGTTYYADSVKGRFTISRDNAKNTVYLLLISVTPEDTAVYYCPAPFIWGYWGVGYYYWGQGTHVTVSS | low polyreactivity
4 | QVNLVETGGGLVQAVCSLRLSCAASGSIFGIYTMGWYRQAPGKERELVAAINSGGSTIYADSVKGRFTISRDNAKNTVYLQMNSLKPEDSAVYYWIAYIHPPGPRVYSREYDYWGQGTQLTVSS | low polyreactivity
5 | QVNLVYSAGGLVQAGGILRLSCTASGCTFYYNAMGWYRQEPGKVREVVARISRSGGSTYEDSVKGRFTISRDNAKNTVYLPMNSLKPEDTAVYYCNADAYGTPEFTSYAVSYDLWGQGTQVTVSS | low polyreactivity
6 | QVPLVESGGGLVQAGGILRLSCAASGRTFRYNVMGCYRQAPGKERELVASISRISGSTYYADSVKGRFTISRDNAKNTVYLQMNSLKPEDTAVYYCAATVKLKHYPYVGFGYWGQGTQVTVSS | high polyreactivity
7 | QVPLVESGGGLVQAGGRLRLRCAASAFTFDSYAMGWNRQAPGKERELVAAITWSGGSTYSADSVKGRFTISRDNAKNTVYLQMNSLQPEDTAVYYCNVYRYDGDYWGQGTQVPVSS | high polyreactivity
8 | QVPLVESGGGLVQAGGSLRLSCAASGGIFYSYAMGWYRQAPGKERELVPAIRTNGGTTYYADSVKGRFTISRDNAKNTVYLQLNSLKQEDTAVYYCDALPGSYYDRGEYDYWGQGTQVTVSS | low polyreactivity
9 | QVPLVESGGGLVQAGGSLRLSCAASGLIFTGYAMGWYRQAPGKEREVVAAITSAGSTNYADSVKGRFTISRDNAKNTVYLQMNSLKPEDTAVYYCGASRTTTFSWYYLYYLVSKYYYWGQGTQVTVSS | low polyreactivity
10 | QVPLVESGGGLVQAGGSLRLSCAASGLTVSSYAMGWYRQAPGKERELVAVFSRTGGSTYYADSVKGRFTISRDNAKNTVYLQMNSLKPEDTAVYYCAARSYNGWRYDSWGQGTQVTVSS | high polyreactivity
11 | QVPLVESGGGLVQAGGSLRLSCAASGSICWSYAMGWYRQAPGTERELVASITRSGGSTYYADSVKGRFTISRDYAKNSLYLQLNSLKPEETAVYYCNARRTTRWGSSKYEYDYWGQATQVTVSS | high polyreactivity
12 | QVPLVESGGGLVQAGGSLRLSCAASGSIFRNYALGWYRQAPGKERELVAGITQRGGRTYYADSVKGRFTSSRDNAKNTVYLQLNSLKPEDTAVYYCAASYRGVPEYDSWGQGTQVTVSS | high polyreactivity
13 | QVPLVESGGGLVQSGGSLRISCAASGSIFAPNAMGWYRQAPGKERELVAAITSGGSTDYADYVKGRFTISRDNAKNTVYLQMNRLKPEDTAVYFCAKGYVPYAIFDYWGQATQVTVSS | low polyreactivity
14 | QVQDVESGGGLVQAGGSLRLSCAASGRTIDPNAMGWYRQAPGKERELVAAITRTGVRTYYADSVKGRFTISRDNAKNTVYLQMNSLKPEDTAVYYCNRYGARSNDYWGQATQVTVSS | low polyreactivity
15 | QVQFVESGGGLVKAGGSLRLSCAASGYTFGRYAMGWYRQAPGKERELVAAITKSGGPTSYADSVKGRFTISRDNAKNTVYLQMNSLKPEDTAVYYCNKVLFQPYWVVYATGDYWGQGTQVTVSS | high polyreactivity
16 | QVQGVESGGGLVQAGGSLRLSCAAAGFTFGYYAMGWYRQAPGTERELVAGISWGGTRTYYADSVKGRFTISRDNAKNTVYLQLNSLKPEDTAVYYCAAESILGYDYWGQGTQVTVSS | high polyreactivity

Row | Sequence | polyreactivity (PSR sort gate)
17 | QVQHDESGGCLVQAGGSLRLSCAASGITFILYDMGWYREAPGKVRELVASITSGGSTDYADSVKGRFTISRDNAKNTVYLQMNSLKPEDTAVYYCAARYVYPYWYGDYYWGQGTQVTVSS | low polyreactivity
18 | QVQHEESAGGLVQAGGSLRLSCAASGSTIHPYSMGWSRQAPGKERELVAAITWGGGSTYYADSVKGRFTISRDNAKNTVYLQMNSLKPEDTAVYYCNSYTLYWPDYDYWGQGTQVTVSS | low polyreactivity
19 | QVQHEESAGGLVQAGGSLRVSCAASGIIFYDYAMGWYRQAAGKERELVAAITSVGSTNYADSVKGRFTISRDYAKNTVYLQMISLKPDDTAVYYCDAEVYVPDYFQHIFDVEYEYWGQGTQVTVSS | low polyreactivity
20 | QVQHEESGGGLVQAGGRLRLSCAASGRTFFSNAMGWYRQAPGKERELVAAISNGDNTYYADSVKGRFTISRDNAKNTVYLQMNSLKPEDTAVYYCATAYPEWAVWGYDYWGQGTQVTVSS | low polyreactivity
21 | QVQHEESGGGLVQAGGSLRLSCAASGITINFYDMGRYRQARGKERELGAAITASGGGSTYYADSVKGRFTISRDNAKNTVYLQMNSLKPEYTAVYYCNADSTGSFYTFDYWGQGTQVTVSS | low polyreactivity
22 | QVQHVASGGGLVQAGGSLRLSCAASGNIFRYYTMGWYRQAPGKERELVATISYADSVKGRFTISRDNAKNTVYLQMNSLKPEDTAVYYWNAVFAPWDKQDYPYDYDYWGQGTQVTVSS | low polyreactivity
23 | QVQHVDSAGGLVQAGGSLRLSCAASGSTFAPNAMGWYRQAPGKERELVAAISFRGVRTYYADSVKGRFTISRDNAKNTVYLQMNCLKPEDTAVYYCNKRVQRRNKPGAYNYEYWGQGTQVTVSS | high polyreactivity
24 | QVQHVDSGGGLVQAAGSLRLSCAASGRTFGVYAMGWYRQAPGKERELVATITSVDRTNYADSVKGRFTISRENAKNTVYLLMNSLKPDDTAVYYCADVGRGPRYFYWGQGTQVTVSS | high polyreactivity
25 | QVQHVDSGGGLVQTGGSLLLSCAAYGRTFCVNDMGWYRQAAGKEREFVAAITWRGDSTYYADSVKGRFTISRDNAKNTVYLQMNSLKPEDSAVYYCNADVISLYDHPDYLYLFDYWGQGTQVTVSS | low polyreactivity
26 | QVQHVDSVGGLVQAGRSLRLICAASGSTFTSYTKGWYRQAPLKERELVDRITRGGGSTYYADSVKGRFTISRDNAKNTVYLQMNSLKQEDTAVYYCAKHVVGSAYYSWGQGTQVTVSS | low polyreactivity
27 | QVQHVESAAGLVQAGGSLRLSCDPSGIIFGRYAMGLYRHAPGKEREFVAAITWSGGSTYYADSVKGRFTISRDNAKNTVYLQMNSLKPEDTAVYYCAADTWYRYDYWGQGTQVTVSS | low polyreactivity
28 | QVQHVESGAGLVQAGGSLRLSCAASGIILLENAIGCYRQQPGKERELVSGISSGGNTNYADSVKGRFTISRDNAKNTVYLQINSLKPEDTAVYYCNTDWYLPRYVLPGYFSGTEDYWGKGTQVTVSS | low polyreactivity
29 | QVQHVESGGALVQAGGSLRLSCAASGITFDYYVMGWYRTAPGKERELVAGISSGGSTYYADSVKGRFTISRDNAKNTVYLQMNSLKPEDTAVYYCNARRRRLVSVGYYYNYDYWGQGTQVTVSS | high polyreactivity
30 | QVQHVESGGCLVQAGASLRLSCDASGSIFRRNAMGWYRQAPGKERQLVDAITSYGGRTYYADSVKGRFTISRDNAKNTVYFQMNSLKPVDTAVYYCASRYPWGWAMNYWGQGTQVTVSS | high polyreactivity
31 | QVQHVESGGGIVQAGGSLRLICAASGFPYARYAMGWNRQAPGNERELVAAITSAGSTSYADSVKGRFTISRYNAKNTDYFHMNSLKPEDTAVYYCAAVQYNQAYHYWGQGTQVTVSS | high polyreactivity
